In doi:10.1101/2020.11.17.386581 (bioRxiv, 2020):

Biological target: recombinant human tau 2N4R (as used in SPR) (human, UniProt P10636-8 1-441)
Test: SPR

Kd: 41 ± 9 nM
B1: Recombinant human SORL1 aa 82-753 protein (domain or fragment, UniProt Q92673 82-753, looked up)
chain: SAALQPEPIKVYGQVSLNDSHNQMVVHWAGEKSNVIVALARDSLALARPKSSDVYVSYDYGKSFKKISDKLNFGLGNRSEAVIAQFYHSPADNKRYIFADAYAQYLWITFDFCNTLQGFSIPFRAADLLLHSKASNLLLGFDRSHPNKQLWKSDDFGQTWIMIQEHVKSFSWGIDPYDKPNTIYIERHEPSGYSTVFRSTDFFQSRENQEVILEEVRDFQLRDKYMFATKVVHLLGSEQQSSVQLWVSFGRKPMRAAQFVTRHPINEYYIADASEDQVFVCVSHSNNRTNLYISEAEGLKFSLSLENVLYYSPGGAGSDTLVRYFANEPFADFHRVEGLQGVYIATLINGSMNEENMRSVITFDKGGTWEFLQAPAFTGYGEKINCELSQGCSLHLAQRLSQLLNLQLRRMPILSKESAPGLIIATGSVGKNLASKTNVYISSSAGARWREALPGPHYYTWGDHGGIITAIAQGMETNELKYSTNEGETWKTFIFSEKPVFVYGLLTEPGEKSTVFTIFGSNKENVHSWLILQVNATDALGVPCTENDYKLWSPSDERGNECLLGHKTVFKRRTPHATCFNGEDFDRPVVVSNCSCTREDYECDFGFKMSEDLSLEVCVPDPEFSGKSYSPPVPCPVGSTYRRTRGYRKISGDTCSGGDVEARLEGELVPCP
